Experimental data from US20220112292A1 (ALETA BIOTHERAPEUTICS, published 2022).
Each block holds one binder with its values, some of them ahead of it.

Tests used:
CLL-1 on U937 cells [1] = target: T1, CLL-1 on U937 cells (human, UniProt Q5QGZ9 1-265); assay: flow cytometry on U937 cells, clone lysate, anti-cMyc-PE (Table 3 summary)
T1 construct: whole, on cells; also called CLEC12A; Clec12A
T1 sequence: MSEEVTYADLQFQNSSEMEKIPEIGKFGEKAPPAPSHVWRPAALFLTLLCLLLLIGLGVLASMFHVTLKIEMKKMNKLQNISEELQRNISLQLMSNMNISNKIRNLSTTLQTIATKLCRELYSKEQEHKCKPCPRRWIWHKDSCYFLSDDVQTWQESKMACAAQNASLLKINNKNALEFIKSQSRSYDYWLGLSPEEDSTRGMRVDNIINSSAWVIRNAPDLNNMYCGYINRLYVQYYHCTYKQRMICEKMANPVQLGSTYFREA

CLL-1 on U937 cells [2] = target: T1, CLL-1 on U937 cells; assay: flow cytometry on U937 cells, VHH in 3-fold dilutions, detected with a-His-PE; percent of cells positive
Experimental: (§1) U937 cell binding by VHH clones was assessed using varying doses to determine EC50s. Briefly, the method included: VHH clones (3 ug/ml as starting conc./test, with 3× serial dilutions) in FACS buffer were added to Fc blocked U937 or 293T-CLL1 cells (2.5×10\hat{ }5), the mixtures were incubated for 30 min at 4° C., then washed twice with FACS buffer by spinning at 500G for 2 min; anti-His-PE was added to cells, the mixture was incubated for 30 min at 4° C. and washed twice with FACS buffer by spinning at 500G for 2 min; 1% PFA (Paraformaldehyde) in PBS was added to cell pellet to fix the cells, followed by FACS analysis. VHH clones tested: 1B5: stock=1.6 mg/ml; 1H1: stock=1.9 mg/ml; 1G6: stock=1.1 mg/ml; 2F3: stock=1.45 mg/ml; 2F5: stock=0.5 mg/ml; 2H3: stock=2 mg/ml.

CLL-1 on U937 cells [3] = target: T1, CLL-1 on U937 cells; assay: flow cytometry on U937 cells, % binding against ng/ml, detected with a-His-PE; EC50 of the fitted curve
Experimental: as §1

[4] = target: T2, Clec12A-His (Sino Biological, 11896-H07H) (human, UniProt Q5QGZ9 65-265); assay: ELISA on plate coated with CLEC12a-His; unlabeled VHH at 10 ug/ml first, biotinylated VHH at 0.2 ug/ml second, streptavidin-HRP
T2 construct: Bought soluble protein; also called soluble CLEC12a-His; Sino Biological Clec12A
T2 chain: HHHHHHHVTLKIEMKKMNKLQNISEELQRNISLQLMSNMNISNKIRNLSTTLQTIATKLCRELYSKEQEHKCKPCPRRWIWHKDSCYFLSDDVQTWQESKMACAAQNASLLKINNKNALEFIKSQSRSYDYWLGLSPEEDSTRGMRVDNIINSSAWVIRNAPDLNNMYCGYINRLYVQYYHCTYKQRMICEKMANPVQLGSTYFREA
Experimental: ELISAs were used to determine if the VHH clones recognized distinct or similar epitopes. […] The plate was blocked with 0.3% nonfat milk in TBS (200 ul/well) for 1 hr at RT. The plates were washed 3× with 1×TBST (0.1 M Tris, 0.5 M NaCl and 0.05% Tween-20). The test anti-CLEC12a VHHs were added at 10 ug/ml horizontally across the plate, 100 ul per well and incubated for 1 h. Without washing, the test anti-CLEC12a biotinylated VHHs were added at 0.2 ug/ml vertically down the plate, 100 ul per well and incubate for 1 h. After being washed 3× with 1×TBST, HRP-conjugated streptavidin (Pierce #21130) at 1:2000 (100 ul/well) was added, followed by incubation at RT in the dark for 1 hr. For detection, 1-Step Ultra TMB-ELISA reagent (Thermo Fisher #34028) was added at 100 ul per well and read at 450 nm. […] The 1H1 VHH was distinct from these, and 2C2 was intermediate. Results are depicted in FIGS. 7A-7D.

CLL-1 on U937 cells [5] = target: T1, CLL-1 on U937 cells; assay: flow cytometry on U937 cells, VHH at 3 ug/ml, detected with a-His-PE; a-His-PE alone 1.1% and 5,576.5, unstained 0.6% and 5,793.5
Experimental: U937 cell binding by VHH clones was assessed. Briefly, the method included: U937 cells (2.5×10\hat{ }5) were Fc blocked (human Fc block, BD Cat. #BDB564220) for 10 min at room temperature, then washed once with FACS buffer (PBS+1% BSA+0.1% Sodium Azide) by spinning at 500G for 2 min; VHH clones (3 μg/ml as final conc) in FACS buffer were added to the cell pellets and incubated for 30 min at 4° C., then washed twice with FACS buffer by spinning at 500G for 2 min; anti-His-PE (R&D Systems, Cat. #IC050P) was added to cells; the mixture was incubated for 30 min at 4° C. and washed twice with FACS buffer by spinning at 500G for 2 min; 1% PFA (Paraformaldehyde) in PBS was added to cell pellet to fix the cells, followed by FACS analysis. VHH clones tested: 1B5: stock=1.6 mg/ml; 1H1: stock=1.9 mg/ml; 1G6: stock=1.1 mg/ml; 2F3: stock=1.45 mg/ml; 2F5: stock=0.5 mg/ml; 2H3: stock=2 mg/ml. As shown in FIGS. 2A-2C, binding of clones 1H1, 1G6, 2F5 and 2H3 to U937 cells was detected with anti-His-PE; very little binding of clones 1B5 and 2F3 to U937 cells could be detected by anti-His-PE.

CLL-1 on U937 cells [6] = target: T1, CLL-1 on U937 cells; assay: flow cytometry on U937 cells, 3x serial dilutions from 3 ug/ml, anti-His-PE
Experimental: as §1

- % FACS positive (CLL-1 on U937 cells [1]): 85.9%
B1: VHH clone 2H10 (VHH)
VHH: QVQLQEFGGGLVQAGGSLRLSCAASGSIFAINEINLMGWYRQAPGKQRELVAACASDGNTYYADSVKGRFTISRDNAEKTVYLQMNNLKPDDTAVYYCDANSRGNYYSGQGTQVTVSS
notes: includes myc and His tags; also called 1G3

- % FACS positive (CLL-1 on U937 cells [1]): 86.3%
B2: VHH clone 2A11 (VHH)
VHH: QVQLQESGGGLVQPGGSLRLSCAASGSIFAINEINLMGWYRQAPGKQRELVAACASDGNTYYADSVKGRFTISRDNAEKTVYLQMNNLKPDDTAVYYCDANSRGNYYSGQGTLVTVSS
notes: Includes myc and His tags

- % binding at 1.4 ng/ml (CLL-1 on U937 cells [2]): 4.6%
- % binding at 4.1 ng/ml (CLL-1 on U937 cells [2]): 24.2%
- % binding at 12.3 ng/ml (CLL-1 on U937 cells [2]): 59.3%
- % binding at 37.0 ng/ml (CLL-1 on U937 cells [2]): 83.1%
- % binding at 111.1 ng/ml (CLL-1 on U937 cells [2]): 86%
- % binding at 333.3 ng/ml (CLL-1 on U937 cells [2]): 86.7%
- % binding at 1000 ng/ml (CLL-1 on U937 cells [2]): 85.9%
- % binding at 3000 ng/ml (CLL-1 on U937 cells [2]): 86.4%
- EC50 (CLL-1 on U937 cells [3]): 7.45 ng/mL
- binding result [4]: binds
- % FACS positive (CLL-1 on U937 cells [1]): 72.7%
- % of This Plot (R3 PE+) (CLL-1 on U937 cells [5]): 95.5%
- Mean FL2-A (R3 gate) (CLL-1 on U937 cells [5]): 9260
- EC50 (CLL-1 on U937 cells [6]): 0.47 nM
B3: VHH clone 2F5 (VHH)
VHH: QVQLQQSGGGLAQTGGSLILSCAASGSIFAINEINLMGWYRQAPGKQRELVAACASDGNTYYADSVKGRFTISRDNAEKTVYLQMNNLKPDDTAVYYCDANSRGNYYSGQGTQVTVSS
notes: Includes myc and His tags

- % binding at 1.4 ng/ml (CLL-1 on U937 cells [2]): 6%
- % binding at 4.1 ng/ml (CLL-1 on U937 cells [2]): 26.8%
- % binding at 12.3 ng/ml (CLL-1 on U937 cells [2]): 56.7%
- % binding at 37.0 ng/ml (CLL-1 on U937 cells [2]): 83.1%
- % binding at 111.1 ng/ml (CLL-1 on U937 cells [2]): 87.7%
- % binding at 333.3 ng/ml (CLL-1 on U937 cells [2]): 88.2%
- % binding at 1000 ng/ml (CLL-1 on U937 cells [2]): 88.6%
- % binding at 3000 ng/ml (CLL-1 on U937 cells [2]): 88.9%
- EC50 (CLL-1 on U937 cells [3]): 7.72 ng/mL
- binding result [4]: binds
- % of This Plot (R3 PE+) (CLL-1 on U937 cells [5]): 95.6%
- Mean FL2-A (R3 gate) (CLL-1 on U937 cells [5]): 9310
- EC50 (CLL-1 on U937 cells [6]): 0.49 nM
B4: VHH clone 1G6 (VHH)
VHH: QVQLQQSGGGLVQAGGSLRLSCAASGSIFAINEINLMGWYRQAPGKQRELVAACASDGNTYYADSVKGRFTISRDNAEKTVYLQMNNLKPDDTAVYYCDANSRGNYYSGQGTQVTVSS
notes: includes myc and His tags; also called 2G11; 2H2

- % FACS positive (CLL-1 on U937 cells [1]): 73.4%
B5: VHH clone 2C8 (VHH)
VHH: QVQLVESGGGLVQAGGSLRLSCAASGSIFAINEINLMGWYRQAPGKQRELVAACASDGNTYYADSVKGRFTISRDNAEKTVYLQMNNLKPDDTAVYYCDANSRGNYYSGQGTLVTVSS
notes: Includes myc and His tags

- % FACS positive (CLL-1 on U937 cells [1]): 14.6%
B6: VHH clone 1D2 (VHH)
VHH: QVQLQQSGGGLVQPGGSLRLSCAASGFAFDDYAMIWVRQGPGKGLEWVSSISWNGGGTYYAESIVGRFTVSRDNAKKMVYLQMNGLKSEDTAMYYCVKLVDSGWYSAYDYWGQGTQVTVSS
notes: Includes myc and His tags

- % of This Plot (R3 PE+) (CLL-1 on U937 cells [5]): 12.4%
- Mean FL2-A (R3 gate) (CLL-1 on U937 cells [5]): 3570
B7: VHH clone 2F3 (VHH)
VHH: QVQLQAFGGGLVQPGGSLRLSCVVSGTMFSGKDVNWLRQAPGKHVEVVATVSSDGGTDYADFVKGRFTISRDDAKNTVNLQMNSLEPEDTANYMCHFLWGRHYWGQGTQVTVSS
notes: Includes myc and His tags
